Laboratory results as given in patent US20220144960A1 (NANJING LEGEND BIOTECH, published 2022).
Positions count from the first letter of the chain named. Where two headings read alike, the source gives them in different places.

B1: 5F11bbz CAR (other)
chain: DIQMTQSPTSLSASVGDRVTITCRASQGISSWLTWYQQKPEKAPKSLIYAASSLQSGVPSRFSGSGSGTDFTLTISSLQPEDFATYYCQQYDSYPITFGQGTRLEIKGSTSGSGKPGSGEGSTKGQVQLQQWGAGLLKPSETLSLTCAVYGGSFSAYYWSWIRQPPGKGLEWIGDINHGGGTNYNPSLKSRVTISVDTSKNQFSLKLNSVTAADTAVYYCASLTAYWGQGSLVTVSSTTTPAPRPPTPAPTIASQPLSLRPEACRPAAGGAVHTRGLDFACDIYIWAPLAGTCGVLLLSLVITLYCKRGRKKLLYIFKQPFMRPVQTTQEEDGCSCRFPEEEEGGCELRVKFSRSADAPAYKQGQNQLYNELNLGRREEYDVLDKRRGRDPEMGGKPRRKNPQEGLYNELQKDKMAEAYSEIGMKGERRRGKGHDGLYQGLSTATKDTYDALHMQALPPR
B2: AS53445bbz CAR (other)
chain: QVQLVESGGGSVQAGGSLRLSCTASGYIFCMGWFRQAPGKAREGIATIYTGGDSTYYDDSVKGRFTISRDNAKNTVYLQMNSLKPEDTAMYYCAAGGQECYLTNWVSYWGQGTQVTVSSTTTPAPRPPTPAPTIASQPLSLRPEACRPAAGGAVHTRGLDFACDIYIWAPLAGTCGVLLLSLVITLYCKRGRKKLLYIFKQPFMRPVQTTQEEDGCSCRFPEEEEGGCELRVKFSRSADAPAYKQGQNQLYNELNLGRREEYDVLDKRRGRDPEMGGKPRRKNPQEGLYNELQKDKMAEAYSEIGMKGERRRGKGHDGLYQGLSTATKDTYDALHMQALPPR
B3: AS47863VH4bbz CAR (other)
chain: EVQLVESGGGLVQPGGSLRLSCAASGSTFGDSDMGWYRQAPGKGCELVSIISSDGRTYYVDSVKGRFTISQDNSKNTLYLQMNSLRAEDTAVYYCAADLRQYCRDGRCCGYWGQGTLVTVSSTTTPAPRPPTPAPTIASQPLSLRPEACRPAAGGAVHTRGLDFACDIYIWAPLAGTCGVLLLSLVITLYCKRGRKKLLYIFKQPFMRPVQTTQEEDGCSCRFPEEEEGGCELRVKFSRSADAPAYKQGQNQLYNELNLGRREEYDVLDKRRGRDPEMGGKPRRKNPQEGLYNELQKDKMAEAYSEIGMKGERRRGKGHDGLYQGLSTATKDTYDALHMQALPPR
B4: AS57911bbz CAR (other)
chain: DIQMTQSPSSLSASVGDRVTITCRASQSVSSAVAWYQQKPGKAPKLLIYSASSLYSGVPSRFSGSRSGTDFTLTISSLQPEDFATYYCQQSHALITFGQGTKVEIKGGGGSGGGGSGGGGSEVQLVESGGGLVQPGGSLRLSCAASGFNISSSYIHWVRQAPGKGLEWVAYISSYYSYTYYADSVKGRFTISADTSKNTAYLQMNSLRAEDTAVYYCARGYPYGMDYWGQGTLVTVSSTTTPAPRPPTPAPTIASQPLSLRPEACRPAAGGAVHTRGLDFACDIYIWAPLAGTCGVLLLSLVITLYCKRGRKKLLYIFKQPFMRPVQTTQEEDGCSCRFPEEEEGGCELRVKFSRSADAPAYKQGQNQLYNELNLGRREEYDVLDKRRGRDPEMGGKPRRKNPQEGLYNELQKDKMAEAYSEIGMKGERRRGKGHDGLYQGLSTATKDTYDALHMQALPPR
B5: AS48463bbz CAR (other)
chain: QVHLMESGGGSVQAGETLRLSCTASGFTFANSDMGWYRQAPGNACELVSIISSHGGTTYYVDSVKGRFTISRHNAENTVYLRMTSLKPEDTALYYCVADPRSNCRGGYCCGYWGPGTQVTVSSTTTPAPRPPTPAPTIASQPLSLRPEACRPAAGGAVHTRGLDFACDIYIWAPLAGTCGVLLLSLVITLYCKRGRKKLLYIFKQPFMRPVQTTQEEDGCSCRFPEEEEGGCELRVKFSRSADAPAYKQGQNQLYNELNLGRREEYDVLDKRRGRDPEMGGKPRRKNPQEGLYNELQKDKMAEAYSEIGMKGERRRGKGHDGLYQGLSTATKDTYDALHMQALPPR
B6: AS47863bbz CAR (other)
chain: QVQLEESGGGSVQAGETLRLSCTASGSTFGDSDMGWYRQAPGNACELVSIISSDGRTYYVDSVKGRFTISQDNAVSTVYLQMNSLKPEDTGVYYCAADLRQYCRDGRCCGYWGQGTQVTVSSTTTPAPRPPTPAPTIASQPLSLRPEACRPAAGGAVHTRGLDFACDIYIWAPLAGTCGVLLLSLVITLYCKRGRKKLLYIFKQPFMRPVQTTQEEDGCSCRFPEEEEGGCELRVKFSRSADAPAYKQGQNQLYNELNLGRREEYDVLDKRRGRDPEMGGKPRRKNPQEGLYNELQKDKMAEAYSEIGMKGERRRGKGHDGLYQGLSTATKDTYDALHMQALPPR
B7: AS48433bbz CAR (other)
chain: B6 chain with V2I, E5V, K86N, Q101L, Y102N
B8: AS48542VH5bbz CAR (other)
chain: EVQLVESGGGLVQPGGSLRLSCATSAFTFDGPDMAWYRQAPGKGCELVSIISADGRTYYADSVKGRFTISRDNSKNTVYLQMNSLRAEDTAVYYCALDPRKNCRGGYCCANWGQGTLVTVSSTTTPAPRPPTPAPTIASQPLSLRPEACRPAAGGAVHTRGLDFACDIYIWAPLAGTCGVLLLSLVITLYCKRGRKKLLYIFKQPFMRPVQTTQEEDGCSCRFPEEEEGGCELRVKFSRSADAPAYKQGQNQLYNELNLGRREEYDVLDKRRGRDPEMGGKPRRKNPQEGLYNELQKDKMAEAYSEIGMKGERRRGKGHDGLYQGLSTATKDTYDALHMQALPPR
B9: AS48481bbz CAR (other)
chain: EVQLVASGGGSVQAGETLRLSCTASGFTFADSAMGWYRKGPGNVCDLVAIIRTDGTTYYGDSAKGRFTISRDNAKSTLYLQMNSLKPEDTAVYFCAADRETSFIGGSWCVAKYWDQGTQVTVSSTTTPAPRPPTPAPTIASQPLSLRPEACRPAAGGAVHTRGLDFACDIYIWAPLAGTCGVLLLSLVITLYCKRGRKKLLYIFKQPFMRPVQTTQEEDGCSCRFPEEEEGGCELRVKFSRSADAPAYKQGQNQLYNELNLGRREEYDVLDKRRGRDPEMGGKPRRKNPQEGLYNELQKDKMAEAYSEIGMKGERRRGKGHDGLYQGLSTATKDTYDALHMQALPPR
B10: AS48463VH4bbz CAR (other)
chain: EVQLLESGGGLVQPGGSLRLSCAASGFTFANSDMGWYRQAPGKGCELVSIISSHGGTTYYVDSVKGRFTISRDNSKNTLYLQMNSLRAEDTAVYYCVADPRSNCRGGYCCGYWGQGTLVTVSSTTTPAPRPPTPAPTIASQPLSLRPEACRPAAGGAVHTRGLDFACDIYIWAPLAGTCGVLLLSLVITLYCKRGRKKLLYIFKQPFMRPVQTTQEEDGCSCRFPEEEEGGCELRVKFSRSADAPAYKQGQNQLYNELNLGRREEYDVLDKRRGRDPEMGGKPRRKNPQEGLYNELQKDKMAEAYSEIGMKGERRRGKGHDGLYQGLSTATKDTYDALHMQALPPR
B11: AS57659bbz CAR (other)
chain: DIQMTQSPSSLSASVGDRVTITCRASQSVSSAVAWYQQKPGKAPKLLIYSASSLYSGVPSRFSGSRSGTDFTLTISSLQPEDFATYYCQQPYYLITFGQGTKVEIKGGGGSGGGGSGGGGSEVQLVESGGGLVQPGGSLRLSCAASGFNIYSYYIHWVRQAPGKGLEWVASIYSSYSSTYYADSVKGRFTISADTSKNTAYLQMNSLRAEDTAVYYCARSWFSYPGLDYWGQGTLVTVSSTTTPAPRPPTPAPTIASQPLSLRPEACRPAAGGAVHTRGLDFACDIYIWAPLAGTCGVLLLSLVITLYCKRGRKKLLYIFKQPFMRPVQTTQEEDGCSCRFPEEEEGGCELRVKFSRSADAPAYKQGQNQLYNELNLGRREEYDVLDKRRGRDPEMGGKPRRKNPQEGLYNELQKDKMAEAYSEIGMKGERRRGKGHDGLYQGLSTATKDTYDALHMQALPPR

Experiments:
Assay in all cases: cell-based or functional assay
[1] = target: T1, CD30 on CD30-expressing tumor cell lines (HH, MJ, H9) (UniProt P28908 19-595)
T1 sequence (looked up): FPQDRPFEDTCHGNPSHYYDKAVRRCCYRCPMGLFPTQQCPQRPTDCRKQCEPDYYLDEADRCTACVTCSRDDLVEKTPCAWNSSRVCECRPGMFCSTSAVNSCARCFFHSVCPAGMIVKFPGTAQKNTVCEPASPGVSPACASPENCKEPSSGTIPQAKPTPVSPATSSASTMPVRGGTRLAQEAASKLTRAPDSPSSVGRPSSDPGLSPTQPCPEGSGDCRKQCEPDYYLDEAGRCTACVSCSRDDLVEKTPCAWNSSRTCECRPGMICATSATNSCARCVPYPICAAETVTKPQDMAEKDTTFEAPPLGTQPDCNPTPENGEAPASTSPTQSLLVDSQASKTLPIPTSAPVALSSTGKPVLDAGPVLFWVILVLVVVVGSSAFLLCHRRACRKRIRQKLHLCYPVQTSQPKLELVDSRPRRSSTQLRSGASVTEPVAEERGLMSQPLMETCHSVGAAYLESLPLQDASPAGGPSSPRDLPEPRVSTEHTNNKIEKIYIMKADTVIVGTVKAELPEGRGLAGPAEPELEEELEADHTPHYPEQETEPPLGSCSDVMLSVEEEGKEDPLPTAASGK

[2] = target: T1, CD30 on CD30-expressing tumor cell …; remark: listed apart in the source
[3] = target: T1, CD30 on CD30-expressing tumor cell …; remark: listed apart in the source
[4] = target: T1, CD30 on CD30-expressing tumor cell …; remark: listed apart in the source

| Binder | % MJ cell lysis E:T = 0.5:1 (LDH assay, CAR T cells) [1] [%] | % H9 cell lysis E:T = 2:1 (LDH assay, CAR T cells) [2] [%] | % MJ cell lysis E:T = 1:1 (LDH assay, CAR T cells) [2] [%] | further results |
| --- | --- | --- | --- | --- |
| B1 | 29.9 | 45 | 41 | % H9 cell lysis E:T = 2:1 (LDH assay, CAR T cells) [3]: 45%; % MJ cell lysis E:T = 1:1 (LDH assay, CAR T cells) [3]: 41%; % H9 cell lysis E:T = 0.2:1 (FACS method, CAR T cells) [4]: 16%; % MJ cell lysis E:T = 0.2:1 (FACS method, CAR T cells) [4]: 2.3% |
| B2 | 24.6 | – | – | – |
| B3 | – | 63 | 57 | – |
| B4 | 43.9 | – | – | – |
| B5 | 60.8 | – | – | – |
| B6 | 65 | – | – | – |
| B7 | 50.5 | – | – | – |
| B8 | – | 62 | 65 | % H9 cell lysis E:T = 2:1 (LDH assay, CAR T cells) [3]: 62%; % MJ cell lysis E:T = 1:1 (LDH assay, CAR T cells) [3]: 65%; % H9 cell lysis E:T = 0.2:1 (FACS method, CAR T cells) [4]: 38%; % MJ cell lysis E:T = 0.2:1 (FACS method, CAR T cells) [4]: 58.6% |
| B9 | 45.1 | – | – | – |
| B10 | – | 64 | 67 | – |
| B11 | 42 | – | – | – |
